Assay results reported in patent publication US9487562B2, “Stabilized polypeptides as regulators of RAB GTPase function” (President and Fellows of Harvard College, priority 2011, dated 2016).
“Also recorded” adds a separate entry of the source. Bridge positions count the residues as written; N and C are the ends. Square brackets hold non-standard residues; d marks the D form. Ends that are not written are not given here. S5 = C=CCCC[C@](C)(N)C(=O)O

How the values were obtained:
[1] = Peptide thermal stability by CD at 222 nm; format: physicochemical; details: CD at 222 nm over 10-90° C.
Protocol: Peptide thermal stability was measured by scanning the peptide CD at 222 nm over a temperature range (10-90° C.). A sigmoidal unfolding curve was apparent for helices of unmodified FIP peptides (FIP4) with a Tm of ˜34° C. (FIG. 12A).
Peptide thermal stability experiments were performed in a similar manner to circular dichroism experiments in Example 5. Peptide solutions were cooled to 10° C. in a temperature controlled CD-chamber and circular dichroism absorbance at 222 nm was measured at 1 degree intervals while the solution was heated to 90° C. 222 nm CD values were plotted as a function of temperature and fitted to a sigmoidal denaturation curve, with the half-maximal temperature representing the Tm.

RAB11 [2] = target: T1, RAB11 (Homo sapiens, UniProt P62491); assay: Fluorescence polarization binding of FITC-FIP/FITC-RFP peptides to RAB11; details: FITC peptide 15 nM, fluorescence polarization
T1 construct: RAB11 (residues 1-175) was expressed with an N-terminal GST-tag with an internal thrombin cleavage site; GST (thrombin cleavage site between tag and RAB11) (N); made in house; host or cells: Escherichia coli BL21(DE3) pLysS
T1 sequence (P62491 1-175): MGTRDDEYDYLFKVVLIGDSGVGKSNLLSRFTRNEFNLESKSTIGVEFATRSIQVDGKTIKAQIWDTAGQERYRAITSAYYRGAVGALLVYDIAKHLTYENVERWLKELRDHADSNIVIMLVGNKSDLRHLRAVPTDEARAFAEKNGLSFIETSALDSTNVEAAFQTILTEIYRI
Protocol: Fluorescence polarization (FP) was used to measure FIP peptide binding to RAB11 and RAB25 proteins. […] This indicated specificity in the binding measurement, as this subtle change would be expected to perturb binding.
(§1) RAB11/25 protein binding assays were performed by incubating FITC-FIP or FITC-RFP (stapled FIP derivatives) peptides (15 nM) with three-fold dilutions of recombinantly-expressed, purified RAB11, RAB25 or a various epitope-tagged version of either in protein-binding buffer (25 mM Tris-HCl, pH 8.0, 150 mM NaCl, 1 mM EDTA, 1 mM DTT, 10 mM MgCl2, 10 mM GTP). Dilutions and incubations were made in 384-well, black flat-bottom plates (Corning) to a total volume of 40 μL and equilibrated for 60 minutes. Polarization was measured on a Spectramax-M5 multi-label plate reader with λex=485 nm and λem=525 nm. Polarization was calculated according to the standard equation: P=(V−H)/(V+H), where P=polarization, V=vertical emission intensity and H=horizontal emission intensity. Kd values were determined by fitting data to a variable-slope sigmoidal binding curve using Prizm 4 graphing software.
(§2) RAB11 and RAB25 proteins were expressed and purified in Escherichia coli strain BL21(DE3) pLysS (Stratagene) as epitope-tagged fusion proteins in various vectors (Novagen). RAB25 (residues E7-Q180) was expressed with an N-terminal GST- and hexahistidine tag with internal thrombin and TEV cleavage sites (GST-H6-RAB25) (SEQ ID NO: 86) in a pET41-1 vector (Novagen) or with an N-terminal hexahistidine tag alone with an internal thrombin cleavage site (H6-RAB25) (SEQ ID NO: 86) in a pET28 vector (Novagen). FIP3 protein (residues 649-756) was expressed with an N-terminal GST-tag with an internal TEV cleavage site (GST-FIP3) in a pGEX6p-1 vector (Novagen). RAB11 (residues 1-175) was expressed with an N-terminal GST-tag with an internal thrombin cleavage site in a pGEX5x-1 vector (Novagen). Transformed bacteria was grown at 37° C. until an OD600=0.8 was reached, at which point the culture was induced with 0.5 mM isopropyl β-D-1-thiogalactopyranoside (IPTG). Induced cells were grown at 30° C. for 6 hours, pelleted and lysed in binding buffer (25 mM Tris-HC;, pH 8.0, 150 mM NaCl, 1 mM EDTA, 1 mM DTT, 10 mM MgCl2, 10 mM GTP) supplemented with a complete protease inhibitor tablet (Roche) by sonication on ice. The lysate was centrifuged at 14,000 rpm to clear insoluble matter prior to loading onto Ni-NTA resin (Qiagen) for hexahistdine-tagged constructs or on GST-bind agarose resin (Biorad) for GST-tagged constructs. The protein-bound bead slurry was washed 4× with ˜20 mL of buffer and retained protein was eluted with either 250 mM imidazole or 20 mM glutathione in buffer for H6-(SEQ ID NO: 86) or GST-proteins, respectively. The eluent was concentrated using a 30 kD exclusion filter and purified by size-exclusion chromatography on a Superdex-75 Column (Amersham Pharmacia Biotech). Fractions containing purified protein were pooled, concentrated and dialyzed into binding buffer or other similar buffer for specific biochemical assays.

RAB25 [3] = target: T2, RAB25 (Homo sapiens, UniProt P57735); assay: Fluorescence polarization binding of FITC-FIP/FITC-RFP peptides to RAB25; details: FITC peptide 15 nM
T2 construct: RAB25 (residues E7-Q180) was expressed with an N-terminal GST- and hexahistidine tag; made in house; host or cells: Escherichia coli BL21(DE3) pLysS
T2 sequence (P57735 7-180): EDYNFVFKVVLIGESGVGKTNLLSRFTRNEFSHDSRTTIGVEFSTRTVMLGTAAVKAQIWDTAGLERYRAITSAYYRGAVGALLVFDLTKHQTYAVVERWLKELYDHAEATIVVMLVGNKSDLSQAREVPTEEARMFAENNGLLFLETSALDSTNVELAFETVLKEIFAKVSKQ
Protocol: as §1, §2

U2OS osteosarcoma cells = assay: Quantitative epifluorescence microscopy of cell penetration; format: cell-based; details: 5 μM FITC-RFPs for 12 hours, DMEM 10% FBS
Protocol: U2OS osteosarcoma cells were treated with 5 μM FITC-RFPs for 12 hours in Dulbecco's Modified Eagle Medium (DMEM) (Gibco®) containing 10% fetal bovine serum (FBS). Cells were washed, then stained with Hoescht nuclear dye. Automated fluorescence microscopy was performed at 20× on an IX5000 epifluorescence microscope. Nuclear staining is shown in the top panel and FITC is show in the bottom panel (FIGS. 16 and 17B). Quantification was performed using MetaXpress software (FIG. 18A).

[4] = Circular dichroism spectra / percent helicity; format: physicochemical; details: calculated from the absorbance at 222 nm
Protocol: We next investigated the structural stability of the RFPs by obtaining circular dichroism (CD) spectra for each peptide. All measurements were made at 20° C. in water with peptides at 50 μM. […] By comparison, stapled FIP peptides (RFPs) show helical CD spectra indicated by minima at approximately 208 and 222 nm (FIG. 11B).
A circular dichroism spectrometer (Jasco J-710, Japan) was used to determine the α-helical content of all peptides. Peptides were dissolved in water to a final concentration of 50 μM in a quartz cuvette with a path length of 1 cm. Absorbance values were taken at 1 nm intervals between 190 and 260 nm for buffer alone and for peptide solutions. The background (buffer) spectrum was subtracted from experimental spectra, which were subsequently subjected to baseline-normalization and curve-smoothing within the spectrometer software. Percent-helicity was calculated from the absorbance at 222 nm using helical models as previously reported in Chen Y H et al., Biochemistry, 13, 3350-9 (1974).

RAB25 [5] = target: T3, RAB25 (Homo sapiens, UniProt P57735); assay: Biotin-RFP pulldown from OVCAR3 lysate, Western blot for RAB25; format: binding; details: relative to mock or negative control RFP31
T3 construct: incubated in pre-cleared lysate from OVCAR3 cells, which express RAB11 and RAB25; endogenous in cells; host or cells: OVCAR3
T3 sequence (P57735 1-213): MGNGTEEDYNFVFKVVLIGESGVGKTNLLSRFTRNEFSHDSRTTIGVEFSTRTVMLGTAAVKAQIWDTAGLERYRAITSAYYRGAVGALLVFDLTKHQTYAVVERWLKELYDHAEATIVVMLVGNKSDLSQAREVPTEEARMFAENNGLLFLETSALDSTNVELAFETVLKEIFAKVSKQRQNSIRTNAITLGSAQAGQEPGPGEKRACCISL
Protocol: (§3) Optimized RFP peptides were synthesized with an amino-terminal diethyleneglycol-biotin moiety. The peptides were immobilized on streptavidin-agarose resin/beads and incubated in pre-cleared lysate from OVCAR3 cells, which express RAB11 and RAB25. The beads were washed, and the protein was eluted and used for Western blot analysis to identify retained RAB11 and RAB25 (FIG. 24). […] The signal is similar to the relative binding affinities and ALPHASCREEN® IC50 observed for RFP peptides.

[6] = test system: AKT phosphorylated at S473 (p473-AKT); assay: AKT phosphorylation at S473 in OVCAR3 cells (Western blot); format: cell-based, Human; design: dose or concentration left out as unconfirmed; details: OVCAR3 cells treated with RFP26 for 24 hours
Text: AKT, also known as Protein Kinase B (PKB), is a serine/threonine-specific protein kinase that is associated with tumor cell survival, proliferation, and invasiveness. The activation of AKT is also one of the most frequent alterations observed in human cancer and tumor cells, thus deregulation of the AKT plays a pivotal role in tumor biology (Stuenaes et al., Br. J. Pharmacol. (2010) 160(1):116-29). Full AKT activation requires phosphorylation by activating kinases on two residues: threonine 308 (T308) and serine 473 (S473). Hyperactivation of AKT is associated with resistance to apoptosis as well as increased cell proliferation and metabolism. […] To assess the affect of RFP26 on AKT phosphorylation in OVCAR3 cells, OVCAR3 cells were treated with […] RFP26 for 24 hours. The cells were then lysed, and the lysate was used in a Western blot to detect AKT phosphorylated at S473 (p473-AKT) and total AKT (FIG. 25A).

OVCAR3 cells = assay: Transwell migration assay; format: cell-based, Human; details: 15 μM for 24 hours, collagen-coated 8-micron transwells
Protocol: OVCAR3 cells were seeded on collagen-coated, 8-micron transwells in DMEM media. Cells were treated with 15 μM RFP26, RFP31 or vehicle for 24 hours during cell migration. The cells in the wells were fixed, and migrating cells were stained and counted (FIGS. 25B and 25C).

RAB25 [7] = assay: Fluorescence polarization binding of FITC-FIP/FITC-RFP peptides to RAB25
Protocol: as §1, §2

RAB11 [8] = target: T4, RAB11 (Homo sapiens, UniProt P62491); assay: Biotin-RFP pulldown from OVCAR3 lysate, Western blot for RAB11; format: binding; details: relative to mock or negative control RFP31
T4 construct: incubated in pre-cleared lysate from OVCAR3 cells, which express RAB11 and RAB25; endogenous in cells; host or cells: OVCAR3
T4 sequence (P62491 1-216): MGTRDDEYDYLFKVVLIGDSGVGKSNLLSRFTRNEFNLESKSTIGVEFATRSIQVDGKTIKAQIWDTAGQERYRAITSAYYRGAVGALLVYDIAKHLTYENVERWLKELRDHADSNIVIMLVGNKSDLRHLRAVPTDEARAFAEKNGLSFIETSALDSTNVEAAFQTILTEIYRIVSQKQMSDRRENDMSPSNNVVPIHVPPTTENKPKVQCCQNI
Protocol: as §3

GST-H6-RAB25 = target: T5, GST-H6-RAB25 (Homo sapiens, UniProt P57735); assay: ALPHASCREEN competition assay (biotin-RFP14 / GST-H6-RAB25 complex); format: binding; details: competitor added to pre-formed biotin-RFP14/GST-H6-RAB25 complex
T5 construct: RAB25 (residues E7-Q180) was expressed with an N-terminal GST- and hexahistidine tag; made in house; host or cells: Escherichia coli BL21(DE3) pLysS
T5 sequence (P57735 7-180): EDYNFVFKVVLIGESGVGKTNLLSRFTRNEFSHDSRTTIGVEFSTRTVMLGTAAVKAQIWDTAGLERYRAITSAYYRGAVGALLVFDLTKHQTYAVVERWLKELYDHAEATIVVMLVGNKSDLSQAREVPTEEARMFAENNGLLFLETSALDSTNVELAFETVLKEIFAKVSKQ
Text: A nano-bead based […] assay (ALPHASCREEN®) was used to qualitatively assess protein binding (peptide-RAB or protein-RAB association) and quantitatively assess inhibitor ranking (competition assays). […] FIG. 13B schematizes the ALPHASCREEN® (binding) strategy. If an RFP (or FIP protein/peptide) conjugated to biotin (bound to a donor bead, in this case streptavidin) interacts with RAB conjugated to GST (bound to an acceptor bead, in this case, anti-GST), there is a proximity-dependent transfer of chemical energy, resulting in light production.
For competition assays, complexes consisting of biotin-FIP and GST-RAB proteins or biotin-RFP and GST-RAB peptides with free RFPs, unmodified peptides, and FIP proteins were incubated.
In FIGS. 13 and 14, the binding complex is pre-formed with Biotin-RFP14 and GST-H6-RAB25 (SEQ ID NO: 86). Soluble competitors were then added after an incubation time (30 min) across a dose range. These competitors are FIP3 (expressed protein), and Trp-labeled derivatives of RFP14, RFP16 and RFP17. After another incubation of 30 min the streptavidin donor beads and Ni-NTA acceptor beads are added and the luminescent signal is measured approximately 30 min later (total of ˜1.5 hr incubation time).

Row | Molecule | Tm [1] [°C] | binding affinity to RAB11 (RAB11 [2]) | binding affinity to RAB25 (RAB25 [3]) | cell penetration (U2OS osteosarcoma cells) | theoretical percent helicity [4] | binding to and retention of RAB25 (RAB25 [5]) | AKT phosphorylation at S473 [6] | OVCAR3 cellular migration (OVCAR3 cells) | relative affinity RAB11 versus RAB25 (selectivity) (RAB25 [7]) | binding to and retention of RAB11 (RAB11 [8]) | competition for RAB25 binding (IC50) (GST-H6-RAB25)
1 | RFP14: stapled FIP peptide, SEQ ID NO: 75 (RQVRELENYIDRLLV[S5]VNE[S5]TPNILRIPR; staple 16-20; not fully specified (C-terminus)) | 64 | highest binding affinity | highest binding affinity | lowest cell penetration | highest helical content | – | – | – | – | – | –
2 | RFP26: stapled FIP peptide containing an E-R mutation to increase overall charge, SEQ ID NO: 83 (RINFRLQN[S5]IDR[S5]IVRINETNPSILRVK; staple 9-13; not fully specified (C-terminus)) | – | high affinity | retained binding affinity; also recorded: high affinity | – | – | significant binding to and retention | decreased AKT phosphorylation at S473 | inhibited OVCAR3 cellular migration | some selectivity for RAB25 | significant binding to and retention | –
3 | FIP3 protein: expressed FIP3 protein (652-756), soluble competitor in … (protein, UniProt O75154 652-756, looked up, fragment, GST tag) QEYHSRARESELEQEVRRLKQDNRNLKEQNEELNGQIITLSIQGAKSLFSTAFSESLAAEISSVSRDELMEAIQKQEEINFRLQDYIDRIIVAIMETNPSILEVK | – | – | – | – | – | – | – | – | – | – | significantly higher IC50
